Measurements reported in PMC9201945 (Frontiers in Molecular Neuroscience, 2022).

What was measured:
GFP-PICK1 BAR domain = assay: cross-linking; HEK293 cells in 2 ml PBS with 0.3 mM DSS for 20 min at room temperature, quenched with 50 mM Tris, lysed, Western blot (anti-GFP or anti-PICK1); for untagged PICK1 after 5 min with 3 μM ionomycin and a range of extracellular CaCl2
[1] = target: the molecule itself; assay: cross-linking; 100 nM purified his6 protein in 150 mM NaCl, 20 mM HEPES pH 7.4, 5 mM HEDTA, CaCl2 to give [Ca2+]free of 0, 2, 5, 12, 26 μM; 10 μM DSS for 20 min at room temperature, quenched with 50 mM Tris; Western blot with anti-PICK1
[2] = target: the molecule itself; assay: cross-linking; HEK293 cells in 2 ml PBS with 0.3 mM DSS for 20 min at room temperature, quenched with 50 mM Tris, lysed, Western blot (anti-GFP or anti-PICK1); for untagged PICK1 after 5 min with 3 μM ionomycin and a range of extracellular CaCl2

Chain of GFP-PICK1 BAR domain (domain or fragment) (Q9EP80 whole entry, the tested form may be a part): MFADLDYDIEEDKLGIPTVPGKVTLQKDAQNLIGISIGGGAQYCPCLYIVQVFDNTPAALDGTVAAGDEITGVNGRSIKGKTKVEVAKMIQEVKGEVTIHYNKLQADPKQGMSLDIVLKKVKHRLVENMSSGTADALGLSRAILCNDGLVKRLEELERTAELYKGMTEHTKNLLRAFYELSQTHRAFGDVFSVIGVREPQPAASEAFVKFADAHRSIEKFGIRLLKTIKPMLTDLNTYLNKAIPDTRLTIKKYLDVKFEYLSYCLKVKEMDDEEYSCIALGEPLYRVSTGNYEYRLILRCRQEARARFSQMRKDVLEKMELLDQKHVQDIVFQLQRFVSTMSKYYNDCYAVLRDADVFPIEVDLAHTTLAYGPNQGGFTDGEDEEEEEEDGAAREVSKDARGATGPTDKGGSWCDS

Row | Molecule | stoichiometry N [1] | stoichiometry N [2] | further results
1 | GFP-PICK1 BAR domain (domain or fragment) | – | – | stoichiometry N (GFP-PICK1 BAR domain): 2
2 | his64A-PICK1 (natural protein, UniProt Q9EP80 1-416, looked up, PICK1 with residues 271DDEE274 in the BAR domain substituted by alanines; source: E. coli BL21(DE3), pET28, purified (Ni-NTA)) MFADLDYDIEEDKLGIPTVPGKVTLQKDAQNLIGISIGGGAQYCPCLYIVQVFDNTPAALDGTVAAGDEITGVNGRSIKGKTKVEVAKMIQEVKGEVTIHYNKLQADPKQGMSLDIVLKKVKHRLVENMSSGTADALGLSRAILCNDGLVKRLEELERTAELYKGMTEHTKNLLRAFYELSQTHRAFGDVFSVIGVREPQPAASEAFVKFADAHRSIEKFGIRLLKTIKPMLTDLNTYLNKAIPDTRLTIKKYLDVKFEYLSYCLKVKEMAAAAYSCIALGEPLYRVSTGNYEYRLILRCRQEARARFSQMRKDVLEKMELLDQKHVQDIVFQLQRFVSTMSKYYNDCYAVLRDADVFPIEVDLAHTTLAYGPNQGGFTDGEDEEEEEEDGAAREVSKDARGATGPTDKGGSWCDS | 2 | – | –
3 | his6ΔNT-PICK1 (natural protein, UniProt Q9EP80 1-416, looked up, source: E. coli BL21(DE3), pET28, purified (Ni-NTA)) MFAKLGIPTVPGKVTLQKDAQNLIGISIGGGAQYCPCLYIVQVFDNTPAALDGTVAAGDEITGVNGRSIKGKTKVEVAKMIQEVKGEVTIHYNKLQADPKQGMSLDIVLKKVKHRLVENMSSGTADALGLSRAILCNDGLVKRLEELERTAELYKGMTEHTKNLLRAFYELSQTHRAFGDVFSVIGVREPQPAASEAFVKFADAHRSIEKFGIRLLKTIKPMLTDLNTYLNKAIPDTRLTIKKYLDVKFEYLSYCLKVKEMDDEEYSCIALGEPLYRVSTGNYEYRLILRCRQEARARFSQMRKDVLEKMELLDQKHVQDIVFQLQRFVSTMSKYYNDCYAVLRDADVFPIEVDLAHTTLAYGPNQGGFTDGEDEEEEEEDGAAREVSKDARGATGPTDKGGSWCDS | 2 | – | –
4 | GFP-Endophilin A1 (natural protein, UniProt Q99962 1-352, looked up, Endophilin A1, BAR domain protein; plasmid a gift from Dr. Ira Milosevic; The methods name only one 'GFP-endophilin'; source: HEK293, transfected, cross-linked in cells, in lysate) MSVAGLKKQFHKATQKVSEKVGGAEGTKLDDDFKEMERKVDVTSRAVMEIMTKTIEYLQPNPASRAKLSMINTMSKIRGQEKGPGYPQAEALLAEAMLKFGRELGDDCNFGPALGEVGEAMRELSEVKDSLDIEVKQNFIDPLQNLHDKDLREIQHHLKKLEGRRLDFDYKKKRQGKIPDEELRQALEKFDESKEIAESSMFNLLEMDIEQVSQLSALVQAQLEYHKQAVQILQQVTVRLEERIRQASSQPRREYQPKPRMSLEFPTGDSTQPNGGLSHTGTPKPSGVQMDQPCCRALYDFEPENEGELGFKEGDIITLTNQIDENWYEGMLHGHSGFFPINYVEILVALPH | – | 2 | –
5 | Amphiphysin2-GFP (natural protein, UniProt O00499 1-593, looked up, Amphiphysin 2, BAR domain protein; plasmid a gift from Dr. Emmanuel Boucrot; Called Amphiphysin2-GFP in the methods and ^GFPAmphiphysin in the results and the legend; also called ^GFPAmphiphysin; ^GFPamphiphysin; source: HEK293, transfected, cross-linked in cells, in lysate) MAEMGSKGVTAGKIASNVQKKLTRAQEKVLQKLGKADETKDEQFEQCVQNFNKQLTEGTRLQKDLRTYLASVKAMHEASKKLNECLQEVYEPDWPGRDEANKIAENNDLLWMDYHQKLVDQALLTMDTYLGQFPDIKSRIAKRGRKLVDYDSARHHYESLQTAKKKDEAKIAKPVSLLEKAAPQWCQGKLQAHLVAQTNLLRNQAEEELIKAQKVFEEMNVDLQEELPSLWNSRVGFYVNTFQSIAGLEENFHKEMSKLNQNLNDVLVGLEKQHGSNTFTVKAQPSDNAPAKGNKSPSPPDGSPAATPEIRVNHEPEPAGGATPGATLPKSPSQLRKGPPVPPPPKHTPSKEVKQEQILSLFEDTFVPEISVTTPSQFEAPGPFSEQASLLDLDFDPLPPVTSPVKAPTPSGQSIPWDLWEPTESPAGSLPSGEPSAAEGTFAVSWPSQTAEPGPAQPAEASEVAGGTQPAAGAQEPGETAASEAASSSLPAVVVETFPATVNGTVEGGSGAGRLDLPPGFMFKVQAQHDYTATDTDELQLKAGDVVLVIPFQNPEEQDEGWLMGVKESDWNQHKELEKCRGVFPENFTERVP | – | 2 | –
